Data reported in patent US20260207707A1 (UNIVERSITY OF CHICAGO, published 2026).

T1: eosinophil cationic protein (ECP), P12724
T1 chain: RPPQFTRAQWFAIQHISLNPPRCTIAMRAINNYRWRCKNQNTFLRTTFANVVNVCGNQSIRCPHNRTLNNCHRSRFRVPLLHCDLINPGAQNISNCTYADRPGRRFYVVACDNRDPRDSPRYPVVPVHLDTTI

T2: recombinant human N-terminal CD95 (aa 1-173)
T2 chain: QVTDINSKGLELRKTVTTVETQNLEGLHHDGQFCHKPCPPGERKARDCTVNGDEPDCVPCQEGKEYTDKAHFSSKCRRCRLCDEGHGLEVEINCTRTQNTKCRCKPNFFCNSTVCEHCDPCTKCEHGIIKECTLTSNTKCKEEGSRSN

T3: recombinant human C-terminal CD95 (aa 212-335)
T3 chain: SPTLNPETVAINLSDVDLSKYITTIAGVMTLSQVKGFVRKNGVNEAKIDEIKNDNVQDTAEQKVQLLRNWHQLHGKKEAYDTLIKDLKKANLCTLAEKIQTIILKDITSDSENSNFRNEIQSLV

T4: neutrophil elastase (ELANE) (human, UniProt P08246 30-247, limits assumed)
T4 construct: Purified ELANE; In the co-immunoprecipitation it is the native protein in human PMN media; also called human ELANE
T4 sequence (looked up): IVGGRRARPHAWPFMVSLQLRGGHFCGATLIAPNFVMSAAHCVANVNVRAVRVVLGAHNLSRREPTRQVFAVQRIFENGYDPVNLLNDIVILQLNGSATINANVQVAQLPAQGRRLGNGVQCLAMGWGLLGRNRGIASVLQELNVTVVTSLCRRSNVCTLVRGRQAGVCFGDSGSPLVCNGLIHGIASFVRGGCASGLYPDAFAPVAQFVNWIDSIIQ

B1: neutrophil elastase (ELANE) (protein)
chain: IVGGRRARPHAWPFMVSLQLRGGHFCGATLIAPNFVMSAAHCVANVNVRAVRVVLGAHNLSRREPTRQVFAVQRIFENGYDPVNLLNDIVILQLNGSATINANVQVAQLPAQGRRLGNGVQCLAMGWGLLGRNRGIASVLQELNVTVVTSLCRRSNVCTLVRGRQAGVCFGDSGSPLVCNGLIHGIASFVRGGCASGLYPDAFAPVAQFVNWIDSIIQ
B2: eosinophil cationic protein (ECP) (other, human, UniProt P12724 28-160, looked up)
chain: RPPQFTRAQWFAIQHISLNPPRCTIAMRAINNYRWRCKNQNTFLRTTFANVVNVCGNQSIRCPHNRTLNNCHRSRFRVPLLHCDLINPGAQNISNCTYADRPGRRFYVVACDNRDPRDSPRYPVVPVHLDTTI
notes: Identified by proteomics in media conditioned by human PMNs

Columns and labels:
[1] = target: T1, eosinophil cationic protein (ECP), …
[2] = target: recombinant peptide corresponding to aa 317-335 of human CD95
[3] = target: recombinant peptide corresponding to aa 214-231 of human CD95
[4] = target: T2, recombinant human N-terminal CD95 (aa …)
[5] = target: T3, recombinant human C-terminal CD95 (aa …)
[6] = target: T4, neutrophil elastase (ELANE); assay: enzyme kinetics: ELANE (10 nM) chromogenic substrate activity with ECP 0-180 nM, curve fitting
Method: Catalytic activity was measured using the chromogenic substrate N-Methoxysuccinyl-Ala-Ala-Pro-Val p-nitroanilide (Sigma, 100 μg/mL) according to manufacturer's protocol. Absorbance was measured at 405 nm using an accuSkan GO UV/Vis microplate spectrophotometer (ThermoFisher Scientific). […] Residual PMSF was eliminated with a PD-10 desalting column (GE Healthcare Life).

Row | Binder | catalytic turnover (kcat) of ELANE [1] | cleavage of peptide monitored by mass spectrometry [2] | cleavage of peptide monitored by mass spectrometry [3] | cleavage of recombinant protein (SDS-PAGE, Coomassie blue) [4] | cleavage of recombinant protein (SDS-PAGE, Coomassie blue) [5] | Kd [6] [nM]
1 | B1 | increases its catalytic turnover (kcat) by ~12-fold | studies with synthetic peptides validated these findings | studies with synthetic peptides validated these findings | ELANE preferentially cleaved the C-terminal domain | ELANE preferentially cleaved the C-terminal domain | –
2 | B2 | – | – | – | – | – | 17
